From publication PMC3431236, “Characterization and optimization of ArtinM lectin expression in Escherichia coli” (BMC Biotechnology, 2012) come the findings set out here.

Experiment [1] addresses plant native ArtinM (Artocarpus integrifolia). Kind of experiment: SEC; analytical size exclusion chromatography on TSK-G2000sw, 50 mM KH2PO4, 300 mM NaCl, pH 7.4; calibrated with thyroglobulin, immunoglobulin G, ovalbumin and myoglobin.
Experiment [2] concerns the target T1, rArtinM (recombinant ArtinM) (Artocarpus integer, UniProt Q7M1T4, Q3R).
T1 construct: coding region from cDNA clone pLL29 in pET29a(+) (NdeI/BamHI, stop codon, untagged), E. coli BL21-CodonPlus(DE3)-RP; initiator Met removed, not N-acetylated; unintentional Q3R; monomer (native is tetramer)
Kind of experiment: affinity chromatography on D-mannose column, eluted with free D-mannose. It is filed as binding. To be noted: PBS with 0.5 M NaCl, 4 °C; elution with 0.1 M D-mannose; unintentional Q3R carried by the recombinant protein.

T1 sequence (Q7M1T4 entry or part of it Q3R): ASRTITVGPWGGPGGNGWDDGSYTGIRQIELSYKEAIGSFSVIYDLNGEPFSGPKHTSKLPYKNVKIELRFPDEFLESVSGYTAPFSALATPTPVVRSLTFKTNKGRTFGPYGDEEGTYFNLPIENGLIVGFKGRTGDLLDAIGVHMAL

With plant native ArtinM (natural protein), the stoichiometry N in experiment [1] stood at 4.

Turning to `OC[C@H]1OC(O)[C@@H](O)[C@@H](O)[C@@H]1O` (stereo partly drawn) [D-mannose], in experiment [2], the “affinity chromatography on D-mannose column, eluted with free D-mannose” value is listed as “purified from the E. coli lysate by affinity chromatography on a D-mannose column”.
